Results on six molecules are retold here after patent WO2010064089A1.

Assay [1] has as its target C-Met-Rluc and C-Met-K1100A-YFP co-expressed in a CHO stable cell line (c-Met dimerization BRET model) (R. reniformis), P08581. In words: cell-based or functional assay.
The target in assay [2] is C-Met-Rluc expressed with a mutated form of Gab1 fused to YFP in a CHO stable cell line (c-Met activation BRET model) (R. reniformis), P08581. In words: cell-based or functional assay.

B1: [224G11][IgG2 chim] (antibody)
heavy: EVQLQQSGPELVKPGASVKISCKTSGYIFTAYTMHWVRQSLGESLDWIGGIKPNNGLANYNQKFKGKATLTVDKSSSTAYMDLRSLTSEDSAVYYCARSEITTEFDYWGQGTALTVSSASTKGPSVFPLAPCSRSTSESTAALGCLVKDYFPEPVTVSWNSGALTSGVHTFPAVLQSSGLYSLSSVVTVPSSNFGTQTYTCNVDHKPSNTKVDKTVERKCCVECPPCPAPPVAGPSVFLFPPKPKDTLMISRTPEVTCVVVDVSHEDPEVQFNWYVDGVEVHNAKTKPREEQFNSTFRVVSVLTVVHQDWLNGKEYKCKVSNKGLPAPIEKTISKTKGQPREPQVYTLPPSREEMTKNQVSLTCLVKGFYPSDIAVEWESNGQPENNYKTTPPMLDSDGSFFLYSKLTVDKSRWQQGNVFSCSVMHEALHNHYTQKSLSLSPG
light: DIVLTQSPASLAVSLGQRATISCRASESVDSYANSFMHWYQQKPGQPPKLLIYRASNLESGIPARFSGSGSRTDFTLTINPVEADDVATYYCQQSKEDPLTFGSGTKLEMKRTVAAPSVFIFPPSDEQLKSGTASVVCLLNNFYPREAKVQWKVDNALQSGNSQESVTEQDSKDSTYSLSSTLTLSKADYEKHKVYACEVTHQGLSSPVTKSFNRGEC
With B1, the inhibition of the HGF induced BRET signal, c-Met dimerization model in assay [1] was 62.4%. The molecule also registered an inhibition of the HGF effect, c-Met activation BRET model in assay [2] of 66.3%.

B2: murine 224G11 Mab (antibody, mouse IgG1, V domains shown)
VH: EVQLQQSGPELVKPGASVKISCKTSGYIFTAYTMHWVRQSLGESLDWIGGIKPNNGLANYNQKFKGKATLTVDKSSSTAYMDLRSLTSEDSAVYYCARSEITTEFDYWGQGTALTVSS
VL: DIVLTQSPASLAVSLGQRATISCRASESVDSYANSFMHWYQQKPGQPPKLLIYRASNLESGIPARFSGSGSRTDFTLTINPVEADDVATYYCQQSKEDPLTFGSGTKLEMKR
In assay [1], B2 showed a BRET signal with Mab alone, c-Met dimerization model (% of HGF-induced signal) of 21.3 and an inhibition of the HGF induced BRET signal, c-Met dimerization model of 59.4%. For the same molecule, the inhibition of the HGF induced BRET signal, c-Met activation model in assay [2] was determined as 56.4%.

B3: [224G11][MUP9H chim] (antibody, human IgG1, V domains shown)
VH: EVQLQQSGPELVKPGASVKISCKTSGYIFTAYTMHWVRQSLGESLDWIGGIKPNNGLANYNQKFKGKATLTVDKSSSTAYMDLRSLTSEDSAVYYCARSEITTEFDYWGQGTALTVSS
VL: DIVLTQSPASLAVSLGQRATISCRASESVDSYANSFMHWYQQKPGQPPKLLIYRASNLESGIPARFSGSGSRTDFTLTINPVEADDVATYYCQQSKEDPLTFGSGTKLEMKR
In assay [1], B3 came in with an inhibition of the HGF induced c-Met dimerization BRET signal of 64.4%. Moreover, in assay [2], the BRET signal with Mab alone, c-Met activation model is 7.6% and the inhibition of the HGF induced activation BRET signal came to 64.4%.

B4: [224G11][MH chim] (antibody, human IgG1, V domains shown)
VH: EVQLQQSGPELVKPGASVKISCKTSGYIFTAYTMHWVRQSLGESLDWIGGIKPNNGLANYNQKFKGKATLTVDKSSSTAYMDLRSLTSEDSAVYYCARSEITTEFDYWGQGTALTVSS
VL: DIVLTQSPASLAVSLGQRATISCRASESVDSYANSFMHWYQQKPGQPPKLLIYRASNLESGIPARFSGSGSRTDFTLTINPVEADDVATYYCQQSKEDPLTFGSGTKLEMKR
B4 displayed an inhibition of the HGF induced c-Met dimerization BRET signal in assay [1] of 61.8%. Moreover, in assay [2], the BRET signal with Mab alone, c-Met activation model was found to be 5.1% and the inhibition of the HGF induced activation BRET signal was determined as 59.7%.

B5: [224G11][MMCH chim] (antibody, human IgG1, V domains shown)
VH: EVQLQQSGPELVKPGASVKISCKTSGYIFTAYTMHWVRQSLGESLDWIGGIKPNNGLANYNQKFKGKATLTVDKSSSTAYMDLRSLTSEDSAVYYCARSEITTEFDYWGQGTALTVSS
VL: DIVLTQSPASLAVSLGQRATISCRASESVDSYANSFMHWYQQKPGQPPKLLIYRASNLESGIPARFSGSGSRTDFTLTINPVEADDVATYYCQQSKEDPLTFGSGTKLEMKR
B5 returned an inhibition of the HGF induced c-Met dimerization BRET signal in assay [1] of 52.5%. Further, in assay [2], the BRET signal with Mab alone, c-Met activation model was -2% and the inhibition of the HGF induced activation BRET signal was 53.2%.

B6: [224G11]chim (antibody, human IgG1, V domains shown)
VH: EVQLQQSGPELVKPGASVKISCKTSGYIFTAYTMHWVRQSLGESLDWIGGIKPNNGLANYNQKFKGKATLTVDKSSSTAYMDLRSLTSEDSAVYYCARSEITTEFDYWGQGTALTVSS
VL: DIVLTQSPASLAVSLGQRATISCRASESVDSYANSFMHWYQQKPGQPPKLLIYRASNLESGIPARFSGSGSRTDFTLTINPVEADDVATYYCQQSKEDPLTFGSGTKLEMKR
On to B6, for which, in assay [1], the BRET signal with Mab alone, c-Met dimerization model (% of HGF-induced signal) turned out to be 46.6 and the inhibition of the HGF induced BRET signal, c-Met dimerization model was 28.9%. Besides, in assay [2], the BRET signal with Mab alone, c-Met activation model (% of the HGF induced signal) came to 32.9 and the inhibition of the HGF induced BRET signal, c-Met activation model worked out at 34.5%.
